Blank lines part the entries; values can stand above or below the molecule they belong to.
What was measured:
GPIbα LBD (Homo sapiens) = GPIbα LBD (Homo sapiens) (UniProt P07359); conditions: cited from earlier work
purified VWF = molecular target: T1, purified VWF (Homo sapiens, UniProt P04275); test: ELISA; VWF coated on plates (6 μg/mL in PBS); VHH81 detected with HRP-conjugated anti-VHH antibody; conditions: both partners purified
T1 construct: von Willebrand factor

plasma-derived VWF = molecular target: T2, plasma-derived VWF (Homo sapiens, UniProt P04275); test: as above; conditions: both partners purified
T2 construct: von Willebrand factor from plasma (multimeric); In the flow-chamber functional row the VWF is that of human whole blood; also called plasma VWF; Humate-P; source: reconstituted in PBS from outdated lyophilized Humate-P (CSL-Behring)

Chain of GPIbα LBD (Homo sapiens) (P07359 17-306): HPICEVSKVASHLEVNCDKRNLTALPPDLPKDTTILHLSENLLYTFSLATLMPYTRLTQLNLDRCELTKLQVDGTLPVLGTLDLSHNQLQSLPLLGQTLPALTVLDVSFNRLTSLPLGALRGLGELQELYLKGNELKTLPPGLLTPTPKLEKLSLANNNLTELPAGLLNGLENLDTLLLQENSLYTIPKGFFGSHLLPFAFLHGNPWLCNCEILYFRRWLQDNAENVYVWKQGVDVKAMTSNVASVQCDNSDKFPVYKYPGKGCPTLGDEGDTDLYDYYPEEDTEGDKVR

Molecule: von Willebrand factor AIM-A1 1238-1471 (from UniProt P04275)
Kd (GPIbα LBD (Homo sapiens)): 32000 nM

Kd (purified VWF): ~20 nM
Kd (plasma-derived VWF): ~20 nM
B1: monomeric recombinant VHH81 (construct not stated for this experiment) (VHH)
VHH: EVQLVESGGGLVQPGGSLRLSCAASGRTFSYNPMGWFRQAPGKGRELVAAISRTGGSTYYPDSVEGRFTISRDNAKRMVYLQMNSLRAEDTAVYYCAAAGVRAEDGRVRTLPSEYTFWGQGTQVTVSS
notes: also called PMP12A2h1; source: produced in bacteria
